# Several values for one entry are separate records, joined by “and”; a condition that tells them apart may be missing. Equal values may be shown once.
# Columns and labels:
# Assay in all cases: cryo-EM structure
# Details in all cases: both partners purified
# [1] = target: T1, cleaved H7 Sh2 HA (HA1/HA2), A/Shanghai/2/2013, ectodomain trimer (influenza A virus (A/Shanghai/2/2013))
# T1 construct: copies: 3 + 3
# [2] = target: T2, cleaved H7 NL HA (HA1/HA2), A/Netherlands/219/2003, ectodomain trimer (influenza A virus …, UniProt Q6VMK1)
# T2 construct: copies: 3 + 3
# [3] = target: uncleaved H7 NY HA (HA0), A/New York/107/2003, ectodomain trimer (influenza A virus (A/New York/107/2003))
binder,measurement,setting,value
"H7.5 Fab (papain digest of H7.5 IgG) (Fab, V domains shown) VH: QVQLVQSGAEVKKPGASVKVSCKASGYTLTRYYFHWVRQAPGQGFEWMGIINPNGGGTSYAQKFGDRVIMTSDMSTSTIYMELSSLRSEDTAVYYCARDMPYYHDSGGPLFDLWGQGTLVTVSS VL: EIVMTQSPSSLSASVGDRVTITCRPSQSISTFLNWYEQKPGKAPKLLIYDASSLQSGVPSRFSGSGSGTEFTLTISSLQPEDFATYYCQQSFSTPYTFGQGTRLEIK",stoichiometry N,[1],3 Fabs per trimer
same,stoichiometry N,[2],3 Fabs per trimer and 2 Fabs per trimer
same,stoichiometry N,[3],3 Fabs per trimer

# Source: publication PMC6375650 (PLoS Biology, 2019)
